One block for each molecule: values may come before it.
Key:
[1] = target: SisLac, Phosphotriesterase-Like Lactonase from Sulfolobus islandicus strain M.16.4 (Sulfolobus islandicus strain M.16.4); assay: dynamic light scattering; room temperature, 30 µL of purified protein at 2.5 mg/mL in activity buffer (HEPES 50 mM pH 8, NaCl 150 mM, CoCl2 0.2 mM), 633 nm
[2] = target: SisLac, Phosphotriesterase-Like Lactonase from Sulfolobus islandicus strain M.16.4 (Sulfolobus islandicus strain M.16.4); assay: SEC-MALS; KW803 column (Shodex), room temperature (25°C), 0.5 ml/min, activity buffer (HEPES 50 mM, NaCl 150 mM, CoCl2 0.2 mM) with pH adjusted to 7.3; static and quasi-elastic light scattering, refractometry
[3] = target: the molecule itself; assay: as above

stoichiometry N [1]: 2
stoichiometry N [2]: 2
Molecule: SisLac, Phosphotriesterase-Like Lactonase from Sulfolobus islandicus strain M.16.4 (enzyme)

B1: SsoPox, Phosphotriesterase-Like Lactonase from Sulfolobus solfataricus (enzyme)
chain: MRIPLVGKDSIESKDIGFTLIHEHLRVFSEAVRQQWPHLYNEDEEFRNAVNEVKRAMQFGVKTIVDPTVMGLGRDIRFMEKVVKATGINLVAGTGIYIYIDLPFYFLNRSIDEIADLFIHDIKEGIQGTLNKAGFVKIAADEPGITKDVEKVIRAAAIANKETKVPIITHSNAHNNTGLEQQRILTEEGVDPGKILIGHLGDTDNIDYIKKIADKGSFIGLDRYGLDLFLPVDKRNETTLRLIKDGYSDKIMISHDYCCTIDWGTAKPEYKPKLAPRWSITLIFEDTIPFLKRNGVNEEVIATIFKENPKKFFS
notes: SsoPox, Phosphotriesterase-Like Lactonase of Sulfolobus solfataricus (strain MT4, GenBank AAW47234.1); made from the plasmid pET22b-SsoPox; Plasmid pET22b-SsoPox (GeneArt); also called wt SsoPox; source: E. coli BL21(DE3)-pGro7/GroEL, purified (70°C heat step, ammonium sulfate precipitation, size exclusion chromatography)
stoichiometry N [3]: 2

Source: paper PMC3468530, “Structural and Enzymatic characterization of the lactonase SisLac from Sulfolobus islandicus” (PLoS ONE, 2012)
